Data on 2 proteins can be found in paper PMC5959753 (Cell chemical biology, 2018).

Data set [1] concerns the molecule itself. The data set can be described thus: crystal structure.
Data set [2] deals with the molecule itself. The data set can be described thus: crystal structure. The source holds these as a separate data set.

Positions count from the first letter of the chain named. Read-outs that look alike come from different tables or passages of the source.

B1: Neurospora crassa C-S lyase Egt2, wild type (enzyme, UniProt A7UX13 1-473, looked up)
chain: MVATTVELPLQQKADAAQTVTGPLPFGNSLLKEFVLDPAYRNLNHGSFGTIPSAIQQKLRSYQTAAEARPCPFLRYQTPVLLDESRAAVANLLKVPVETVVFVANATMGVNTVLRNIVWSADGKDEILYFDTIYGACGKTIDYVIEDKRGIVSSRCIPLIYPAEDDDVVAAFRDAIKKSREEGKRPRLAVIDVVSSMPGVRFPFEDIVKICKEEEIISCVDGAQGIGMVDLKITETDPDFLISNCHKWLFTPRGCAVFYVPVRNQHLIRSTLPTSHGFVPQVGNRFNPLVPAGNKSAFVSNFEFVGTVDNSPFFCVKDAIKWREEVLGGEERIMEYMTKLAREGGQKVAEILGTRVLENSTGTLIRCAMVNIALPFVVGEDPKAPVKLTEKEEKDVEGLYEIPHEEANMAFKWMYNVLQDEFNTFVPMTFHRRRFWARLSAQVYLEMSDFEWAGKTLKELCERVAKGEYKESA
modifications: PLP covalently bound to K247 (internal aldimine); selenomethionine in the derivative crystals used for the final structure
Turning to B1, the “stoichiometry N” value in “crystal structure [1]” came out at 2.

B2: Neurospora crassa C-S lyase Egt2 Y134F (enzyme, UniProt A7UX13 1-473, looked up)
chain: B1 chain with Y134F
modifications: PLP covalently bound to K247 (internal aldimine)
On to B2, for which, in “crystal structure [2]”, the “stoichiometry N” value came out at 2.
